Test results: patent US20050153894A1, “p21 peptides” (Cyclacel Limited, priority 1999, published 2005)
pIC50: −log10 of the molar value. Where two headings read alike, the source gives them in different places. Blank lines part the entries; values can stand above or below the molecule they belong to. Numbered stars: 1 amine (or outer) side, 2 acyl side, 3 side chain; on linkers, the order of the positions; unused ones are H or OH. Square brackets hold non-standard residues; d marks the D form. Dhp = Dehydrophenylalanine, O=C(/C(=C/c1ccccc1)N[*:1])[*:2]; Phe(ol) = N[C@H](CO)Cc1ccccc1; dPse = not defined here; Abu = CC[C@H](N)C(=O)O; Pse = Phenylserine

Legend:
CDK4/Cyclin D1 = molecular target: T1, CDK4/Cyclin D1 (Homo sapiens, UniProt P24385); experiment: CDK4/Cyclin D1 kinase assay, phosphorylation of GST-Rb; assay type: biochemical
T1 construct: made in house; host or cells: CDK4: Sf9 insect cells (baculovirus)
Method: (§1) The phosphorylation reaction mixture (total volume 40 μl) consisted of 50 mM HEPES pH 7.4, 20 mM MgCl2, 5 mM EGTA, 2 mM DTT, 20 mM β-glycerophosphate, 2 mM NaF, 1 mM Na3VO4, Protease Inhibitors Cocktail (Sigma, see above), BSA 0.5 mg/ml, 1 μg purified enzyme complex, 10 μl of GST-Rb-Sepharose beads, 100 μM ATP, 0.2 μCi ^32P-ATP. The reaction was carried out for 30 min at 30° C. at constant shaking. At the end of this period 100 μl of 50 mM HEPES, pH 7.4 and 1 mM ATP were added to each well and the total volume was transferred onto GFC filtered plate. The plate was washed 5 times with 200 μl of 50 mM HEPES, pH 7.4 and 1 mM ATP. To each well were added 50 μl scintillant liquid and the radioactivity of the samples was measured on Scintilation counter (Topcount, HP). The IC50 values of different peptides were calculated using GraFit software.
Peptides were synthesized as described above. Cyclin D1 was expressed in E coli BL21(DE3) using PET expression vector and purified from the inclusion bodies. After refolding Cyclin D1 was cross-linked on SulfoLink agarose support (PIERCE). CDK4-6×His was expressed in Sf9 insect cells infected with the appropriate baculovirus construct and purified by metal-affinity chromatography (Quiagen). […] CDK4/Cyclin D1 phosphorilation of Rb was determined by incorporation of radio-labeled phosphate in GST-Rb in 96-well format kinase assay. […] The reaction was carried out for 30 min at 30 C at constant shaking. The GST-Rb-Sepharose beads were washed with 50 mM HEPES and 1 mM ATP and the radioactivity was measured on Scintillation counter (Topcount, HP)

CDK2/Cyclin E = molecular target: T2, CDK2/Cyclin E (Homo sapiens, UniProt P24864); experiment: CDK2/Cyclin E kinase assay, phosphorylation of GST-Rb; assay type: biochemical; conditions: for Kinase Inhibition Cyclin E/CDK2 % Inhibition / Kinase Inhibition Cyclin E/CDK2 IC30: GST-pRb substrate, [ATP] = 100 μM
T2 construct: 6xHis; made in house; host or cells: Sf9 insect cells (baculovirus co-expression)
Method: as §1

CDK2/cyclin A = CDK2/cyclin A (Homo sapiens, UniProt P20248); experiment: CDK2/cyclin A kinase assay, substrate pRb(773-928); assay type: biochemical; conditions: for Relative activity Kinase Inhibition: pRb substrate, [ATP] = 100 μM
Text: Reactions were stopped on ice, followed by filtration through p81 filterplates (Whatman Polyfiltronics, Kent, UK).

Cyclin A = Cyclin A (Homo sapiens, UniProt P20248); experiment: Cyclin A binding assay, immobilised biotinyl-Ahx-[…]NH2; conditions: for Cyclin A Binding Maximum Inhibition: at 100 μM, no IC50 given
Method: This was added to each well (100 μL). The plate was incubated for 1 h at room temperature with constant shaking. The plate was washed once quickly with TBS/BSA buffer (200 μL), followed by three more washes with TBS/BSA buffer (200 μL) for 5 min each. Serial dilutions of test peptides were prepared in a new plate (50 μL in each well). Cyclin A was diluted to 5 μg/50 μL with TBS/BSA buffer and this was then added to each well (50 μL). The solutions were mixed thoroughly with a pipette (5-6 times), before being incubated for 30 min at room temperature. This reaction mixture was then transferred to the biotinylated peptide: streptavidin-coated plate and incubated for 1 h at room temperature with constant shaking. The plate was washed once quickly with TBS/BSA buffer (200 μL), followed by three more washes with TBS/BSA buffer (200 μL) for 5 min each. The cyclin A antibody (Santa Cruz polyclonal) solution was diluted 1:200 with TBS/BSA buffer and this was then added to each well of the plate (100 μL. The plate was incubated for 1 h at room temperature with constant shaking. The plate was washed once quickly with TBS/BSA buffer (200 μl), followed by three more washes with TBS/BSA buffer (200 μL) for 5 min each. The anti-rabbit secondary antibody (goat anti-rabbit IgG peroxidase conjugate) was diluted 1:10,000 with TBS/BSA and this was then added to each well of the plate (100 μL). The plate was incubated for 1 h at room temperature with constant shaking. The plate was washed once quickly with TBS/BSA buffer (200 μL), followed by three more washes with TBS/BSA buffer (200 μL) for 5 min each. To each well was added the TMB-ELISA reagent (Pierce 1-Step™ Turbo TMB-ELISA; 100 μL) and the plate incubated for 1 min with constant shaking. The reaction was then quenched by the addition of 2 M aqueous H2SO4 (100 μL, each well). The UV absorbance of the each solution was measured spectrophotometrically at 450 nm. IC50 values were calculated from dose-response curves.

[1] = GST-pRb substrate, [ATP] = 100 μM
[2] = relative to H-His-Ala-Lys-Arg-Arg-Leu-Ile-Phe-NH2 (SEQ ID No. 36) = 1, CDK2/cyclin A kinase assay
[3] = relative to SEQ ID No. 36 = 1, competitive cyclin A binding, immobilised biotinyl-Ahx-His-Ala-Lys-Arg-Arg-Leu-Ile-Phe-NH2
[4] = His152 substitutions, relative to H-His-Ala-Lys-Arg-Arg-Leu-Ile-Phe-NH2 (=1)
[5] = Leu157 substitutions, relative to H-His-Ala-Lys-Arg-Arg-Leu-Ile-Phe-NH2 (=1)
[6] = Ile158 substitutions, relative to H-His-Ala-Lys-Arg-Arg-Leu-Ile-Phe-NH2 (=1)
[7] = Arg156 substitutions, relative to H-His-Ala-Lys-Arg-Arg-Leu-Ile-Phe-NH2 (=1)
[8] = Ala153 substitutions, relative to H-His-Ala-Lys-Arg-Arg-Leu-Ile-Phe-NH2 (=1)
[9] = Lys154 substitutions, relative to H-His-Ala-Lys-Arg-Arg-Leu-Ile-Phe-NH2 (=1)
[10] = Arg155 substitutions, relative to H-His-Ala-Lys-Arg-Arg-Leu-Ile-Phe-NH2 (=1)

Sequence of Cyclin A (P20248 whole entry): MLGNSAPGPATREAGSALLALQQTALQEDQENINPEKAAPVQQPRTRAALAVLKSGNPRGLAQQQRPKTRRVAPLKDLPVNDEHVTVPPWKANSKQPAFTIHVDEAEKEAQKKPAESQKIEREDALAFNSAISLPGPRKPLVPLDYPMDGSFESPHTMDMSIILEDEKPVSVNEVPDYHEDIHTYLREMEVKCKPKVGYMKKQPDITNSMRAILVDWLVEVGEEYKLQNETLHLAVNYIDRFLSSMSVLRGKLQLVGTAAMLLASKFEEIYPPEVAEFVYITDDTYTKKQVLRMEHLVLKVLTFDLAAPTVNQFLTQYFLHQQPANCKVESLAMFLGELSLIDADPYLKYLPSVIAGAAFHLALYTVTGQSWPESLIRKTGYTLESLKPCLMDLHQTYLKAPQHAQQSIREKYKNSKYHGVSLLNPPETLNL
T1 sequence (P24385 whole entry): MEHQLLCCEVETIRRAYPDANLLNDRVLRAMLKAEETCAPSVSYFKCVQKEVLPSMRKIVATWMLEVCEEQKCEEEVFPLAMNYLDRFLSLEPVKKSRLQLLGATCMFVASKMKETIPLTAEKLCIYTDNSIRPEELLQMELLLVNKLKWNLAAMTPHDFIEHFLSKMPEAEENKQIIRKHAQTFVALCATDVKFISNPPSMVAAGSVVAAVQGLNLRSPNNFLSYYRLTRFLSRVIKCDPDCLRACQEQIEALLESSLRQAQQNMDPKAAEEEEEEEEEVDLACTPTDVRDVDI
T1 sequence (P11802 whole entry partner): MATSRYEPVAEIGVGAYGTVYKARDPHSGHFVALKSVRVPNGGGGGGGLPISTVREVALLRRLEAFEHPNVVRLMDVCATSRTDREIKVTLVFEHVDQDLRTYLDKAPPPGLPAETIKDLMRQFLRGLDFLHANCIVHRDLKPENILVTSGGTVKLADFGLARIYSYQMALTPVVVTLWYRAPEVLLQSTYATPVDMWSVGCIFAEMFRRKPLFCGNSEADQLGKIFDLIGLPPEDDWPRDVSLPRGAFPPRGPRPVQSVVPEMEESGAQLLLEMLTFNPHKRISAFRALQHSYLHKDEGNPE

Molecule: 24 (FYHSKRRLIFS) [compound 24]
Cyclin A Binding Maximum Inhibition (Cyclin A): 50(at 100 (μM) %

Molecule: 30 (SKRRLIF) [compound 30]
Cyclin A Binding Maximum Inhibition (Cyclin A): 20(at 100 (μM) %

Molecule: 110 (H-HAKRRLI[Pse]-OH) [compound 110]
Relative activity Kinase Inhibition (CDK2/cyclin A; [2]): <0.1
Relative activity Cyclin A Binding (Cyclin A; [3]): 0.2

Molecule: 111 (H-HAKRRLI[dPse]-OH; reading uncertain) [compound 111]
Relative activity Kinase Inhibition (CDK2/cyclin A; [2]): <0.1
Relative activity Cyclin A Binding (Cyclin A; [3]): 0.1

Molecule: 112 (H-HSKRRLI[Pse]-OH) [compound 112]
Relative activity Kinase Inhibition (CDK2/cyclin A; [2]): <0.1
Relative activity Cyclin A Binding (Cyclin A; [3]): <0.1

Molecule: CC(=O)N[C@@H](CCCN=C(N)N)C(=O)N[C@@H](CCCN=C(N)N)C(=O)N[C@@H](CC(C)C)C(=O)N[C@@H](CC(N)=O)C(=O)N[C@@H](Cc1ccccc1)C(N)=O [compound 378]
pIC50 (CDK2/cyclin A): 4.43
pIC50 (Cyclin A): 5.09

Molecule: H-Ala-Ala-Lys-Arg-Arg-Leu-Ile Phe-NH2 (H-AAKRRLIF-NH2)
Relative activity Kinase Inhibition (CDK2/cyclin A; [4]): 1.8
Relative activity Cyclin A Binding (Cyclin A; [4]): 2.5

Molecule: H-His Ala-Lys-Arg-Arg-Leu-Val-Phe-NH2 (H-HAKRRLVF-NH2)
Relative activity Kinase Inhibition (CDK2/cyclin A; [6]): 0.8
Relative activity Cyclin A Binding (Cyclin A; [6]): 1.5

Molecule: H-His Ala-Lys-Arg-Pro-Leu-Ile Phe-NH2 (H-HAKRPLIF-NH2)
Relative activity Kinase Inhibition (CDK2/cyclin A; [7]): <0.1
Relative activity Cyclin A Binding (Cyclin A; [7]): <0.1

Molecule: H-His-Ala-Abu-Arg-Arg-Leu-Ile Phe-NH2 (H-HA[Abu]RRLIF-NH2; SMILES CC[C@H](NC(=O)[C@H](C)NC(=O)[C@@H](N)Cc1c[nH]cn1)C(=O)N[C@@H](CCCNC(=N)N)C(=O)N[C@@H](CCCNC(=N)N)C(=O)N[C@@H](CC(C)C)C(=O)N[C@H](C(=O)N[C@@H](Cc1ccccc1)C(N)=O)[C@@H](C)CC)
Relative activity Kinase Inhibition (CDK2/cyclin A; [9]): 0.8
Relative activity Cyclin A Binding (Cyclin A; [9]): 0.2

Molecule: H-His-Ala-Ala-Arg-Arg-Leu-Ile Phe-NH2 (H-HAARRLIF-NH2)
Relative activity Kinase Inhibition (CDK2/cyclin A; [9]): <0.1
Relative activity Cyclin A Binding (Cyclin A; [9]): 0.5

Molecule: H-His-Ala-Leu-Arg-Arg-Leu-Ile Phe-NH2 (H-HALRRLIF-NH2)
Relative activity Kinase Inhibition (CDK2/cyclin A; [9]): 0.1
Relative activity Cyclin A Binding (Cyclin A; [9]): 1.4

Molecule: H-His-Ala-Lys-Ala-Arg-Leu-Ile Phe-NH2 (H-HAKARLIF-NH2)
Relative activity Kinase Inhibition (CDK2/cyclin A; [10]): <0.1
Relative activity Cyclin A Binding (Cyclin A; [10]): <0.1

Molecule: H-His-Ala-Lys-Arg-Ala-Leu-Ile Phe-NH2 (H-HAKRALIF-NH2)
Relative activity Kinase Inhibition (CDK2/cyclin A; [7]): <0.1
Relative activity Cyclin A Binding (Cyclin A; [7]): <0.1

Molecule: YHSKRRL
Kinase Inhibition Cyclin D1/CDK4 % Inhibition (CDK4/Cyclin D1; [1]): 10%
Kinase Inhibition Cyclin E/CDK2 % Inhibition (CDK2/Cyclin E): 30%
Kinase Inhibition Cyclin E/CDK2 IC30 (CDK2/Cyclin E): >200 µM

Molecule: YHSKRRLI
Kinase Inhibition Cyclin D1/CDK4 % Inhibition (CDK4/Cyclin D1; [1]): 15%
Kinase Inhibition Cyclin E/CDK2 % Inhibition (CDK2/Cyclin E): 45%
Kinase Inhibition Cyclin E/CDK2 IC30 (CDK2/Cyclin E): >200 µM

Molecule: YHSKRRLIFS
Kinase Inhibition Cyclin D1/CDK4 % Inhibition (CDK4/Cyclin D1; [1]): 70%
Kinase Inhibition Cyclin D1/CDK4 IC30 (CDK4/Cyclin D1; [1]): 20 ± 1 µM
Kinase Inhibition Cyclin E/CDK2 % Inhibition (CDK2/Cyclin E): 80%
Kinase Inhibition Cyclin E/CDK2 IC30 (CDK2/Cyclin E): 7.3 ± 0.8 µM

Molecule: YHSKRRLIFSKR
Kinase Inhibition Cyclin D1/CDK4 % Inhibition (CDK4/Cyclin D1; [1]): 60%
Kinase Inhibition Cyclin D1/CDK4 IC30 (CDK4/Cyclin D1; [1]): 45 ± 10 µM
Kinase Inhibition Cyclin E/CDK2 % Inhibition (CDK2/Cyclin E): 80%

Continued, values first:

inhibition at 100 µM (CDK4/Cyclin D1; [1]): 72%
pIC50 (CDK4/Cyclin D1; phosphorylation of pRb, read-out: Kinase Inhibition Cyclin D1/CDK4 IC50): 4.68
pIC50 (CDK2/Cyclin E; phosphorylation of pRb, read-out: Kinase Inhibition Cyclin E/CDK2 IC50): 5.47
Kinase Inhibition Cyclin A/CDK2 % Inhibition (CDK2/cyclin A; phosphorylation of pRb): 80%
pIC50 (CDK2/cyclin A; phosphorylation of pRb, read-out: Kinase Inhibition Cyclin A/CDK2 IC50): 5.47
Molecule: CC[C@H](C)[C@H](NC(=O)[C@H](CC(C)C)NC(=O)[C@H](CCCNC(=N)N)NC(=O)[C@H](CCCNC(=N)N)NC(=O)[C@H](CCCCN)NC(=O)[C@H](CO)NC(=O)[C@@H](N)Cc1c[nH]cn1)C(=O)N[C@@H](Cc1ccccc1)C(N)=O

Relative activity Kinase Inhibition (CDK2/cyclin A; [2]): <0.1
Relative activity Cyclin A Binding (Cyclin A; [3]): <0.1
Molecule: 113 (H-HSKRRLI[dPse]-OH; reading uncertain) [compound 113]

Relative activity Kinase Inhibition (CDK2/cyclin A; [2]): 3.3
Relative activity Cyclin A Binding (Cyclin A; [3]): 0.2
Molecule: 118 (H-HAKRRLI[Dhp]-OH; not fully specified) [compound 118]

Relative activity Kinase Inhibition (CDK2/cyclin A; [2]): 0.6
Relative activity Cyclin A Binding (Cyclin A; [3]): 1.0
Molecule: 120 (H-HAKRRLI[Phe(ol)]) [compound 120]

Relative activity Kinase Inhibition (CDK2/cyclin A; [4]): 5
Relative activity Cyclin A Binding (Cyclin A; [4]): 0.4
Molecule: H-Dab-Ala-Lys-Arg-Arg-Leu-Ile Phe-NH2 (XAKRRLIF; N-terminal Dab, C-terminal amide)

Relative activity Kinase Inhibition (CDK2/cyclin A; [5]): 1.5
Relative activity Cyclin A Binding (Cyclin A; [5]): 0.2
Molecule: H-His Ala-Lys-Arg-Arg-Ile-Ile Phe-NH2 (H-HAKRRIIF-NH2)

Relative activity Kinase Inhibition (CDK2/cyclin A; [8]): 5
Relative activity Cyclin A Binding (Cyclin A; [8]): 1.3
Molecule: H-His-Abu-Lys-Arg-Arg-Leu-Ile Phe-NH2 (H-H[Abu]KRRLIF-NH2; SMILES CC[C@H](NC(=O)[C@@H](N)Cc1c[nH]cn1)C(=O)N[C@@H](CCCCN)C(=O)N[C@@H](CCCNC(=N)N)C(=O)N[C@@H](CCCNC(=N)N)C(=O)N[C@@H](CC(C)C)C(=O)N[C@H](C(=O)N[C@@H](Cc1ccccc1)C(N)=O)[C@@H](C)CC)

Relative activity Kinase Inhibition (CDK2/cyclin A; [9]): 5.7
Relative activity Cyclin A Binding (Cyclin A; [9]): 1.5
Molecule: H-His-Ala-Arg-Arg-Arg-Leu-Ile Phe-NH2 (H-HARRRLIF-NH2)

Kinase Inhibition Cyclin D1/CDK4 % Inhibition (CDK4/Cyclin D1; [1]): 70%
Kinase Inhibition Cyclin D1/CDK4 IC30 (CDK4/Cyclin D1; [1]): 16 ± 1 µM
Kinase Inhibition Cyclin E/CDK2 % Inhibition (CDK2/Cyclin E): 80%
Kinase Inhibition Cyclin E/CDK2 IC30 (CDK2/Cyclin E): 7 ± 2 µM
Molecule: YHSKRRLIF
